Results reported in patent publication US7858298 (PROGENICS PHARMACEUTICALS, dated 2010).

Experiments:
[1] = target: T1, recombinant soluble human CD4 (human, UniProt P01730 26-396); assay: flow cytometry on human CCR5-bearing murine L1.2 cells (data not shown)
T1 construct: also called sCD4; soluble CD4

[2] = target: T2, complex formed between sCD4 and biotinylated HIV-1LAI gp120 (HIV-1 LAI (BRU); human, UniProt P03377 33-516; P01730 26-396); assay: as above
T2 construct: also called b-LAI:sCD4

B1: human CCR5 expressed on the cell surface (receptor)
chain: not shown
notes: whole, on cells; also called C-C CKR-5; CKR-5
[1]
  binding result: no binding
[2]
  binding result: no binding
